Measured values reported in FireProtDB.
“And” between values parts separate entries of the source, which are not always exact repeats. Equal entries are not always repeated.

Conditions: whole UniProt chain shown; for unfolding enthalpy (calorimetric) / unfolding enthalpy (van 't Hoff) / Tm / heat capacity change of unfolding: Thermal
[1] = Bos taurus, pH 5.3, 5 °C, GdnHCl, CD, Sodium acetate 0.02 M, reversible: yes
[2] = Bos taurus, pH 6.8, 27 °C, GdnHCl, Absorbance, Sodium phosphate 50 mM, NaCl 50 mM, reversible: no
[3] = Bos taurus, pH 7.2, DSC, phosphate 20 mM, transition: 3, reversible: no
[4] = Bacillus licheniformis (strain ATCC 14580 / DSM 13 / JCM 2505 / CCUG 7422 / NBRC 12200 / NCIMB 9375 / NCTC 10341 / NRRL NRS-1264 / Gibson 46…, pH 7, CD, Hepes 10 mM, reversible: Yes
[5] = Bos taurus, pH 2, CD, KCl-HCl 0.1 M, reversible: yes
[6] = Bos taurus, pH 2, CD, Sodium phosphate 0.2 M, reversible: yes
[7] = Bos taurus, pH 2, DSC, KCl-HCl 0.1 M, reversible: yes
[8] = Bos taurus, pH 6.2, 25 °C, 2-Propanol, CD, Piperazine Unknown, NaCl 30 mM, transition: 2, reversible: Yes
[9] = Bos taurus, pH 5, CD, Tris-acetate 0.01 M, reversible: yes
[10] = Bos taurus, pH 8.4, CD, Tris-acetate 0.01 M, reversible: no

B1: Acyl-CoA-binding protein wild type, P07107 (protein)
chain: MSQAEFDKAAEEVKHLKTKPADEEMLFIYSHYKQATVGDINTERPGMLDFKGKAKWDAWNELKGTSKEDAMKAYIDKVEELKKKYGI
In the case of B1, the denaturant m value [1] is reported as 2.7 kcal/mol/M, the “denaturant midpoint (higher = more stable)” value (“denaturant midpoint” below) [1] is reported as 2.36 M and the unfolding free energy [1] is reported as 6.1 kcal/mol.

B2: Gamma-crystallin B wild type, P02526 (protein)
chain: MGKITFYEDRGFQGHCYECSSDCPNLQPYFSRCNSIRVDSGCWMLYERPNYQGHQYFLRRGDYPDYQQWMGFNDSIRSCRLIPQHTGTFRMRIYERDDFRGQMSEITDDCPSLQDRFHLTEVHSLNVLEGSWVLYEMPSYRGRQYLLRPGEYRRYLDWGAMNAKVGSLRRVMDFY
With B2 the denaturant m value [2] was 1.3 kcal/mol/M and 0.9 kcal/mol/M, the “denaturant midpoint” value [2] was 3 M and 1.3 M and the “unfolding enthalpy (calorimetric)” value (Bos taurus, pH 7.2, DSC, phosphate 20 mM, reversible: no) was 82.3 kcal/mol and 149 kcal/mol and 90 kcal/mol. For the same protein, the “unfolding enthalpy (calorimetric)” value [3] was 126 kcal/mol and 148 kcal/mol and the “unfolding enthalpy (van 't Hoff)” value [3] was 110 kcal/mol and 71 kcal/mol.

B3: Protein GrpE wild type, Q65H53 (protein)
chain: MAEEKQNEELNEQEELNETEAETAEAEQTAAEADAPAEETQTEMLEKQLKELQERLEEKENKLLRVQADFENYKRRARLDLEAAEKYRSQRIISDLLPALDNFERALQIDPDNEQTKSLLQGMEMVHRQILEALKNEGVEQIPSVGEQFDPNMHQAVMQVEDEAYESNAVVEELQKGYKLKDRVIRPSMVKVNQ
For B3, the Tm [4] was 52 °C and the “unfolding enthalpy (van 't Hoff)” value [4] was 99.9 kcal/mol.

B4: Beta-lactoglobulin wild type, P02754 (protein)
chain: MKCLLLALALTCGAQALIVTQTMKGLDIQKVAGTWYSLAMAASDISLLDAQSAPLRVYVEELKPTPEGDLEILLQKWENGECAQKKIIAEKTKIPAVFKIDALNENKVLVLDTDYKKYLLFCMENSAEPEQSLACQCLVRTPEVDDEALEKFDKALKALPMHIRLSFNPTQLEEQCHI
With B4 the Tm [5] was 78 °C, the “heat capacity change of unfolding” value [5] was 1.33 kcal/mol/K and the “unfolding enthalpy (van 't Hoff)” value [5] was 74.6 kcal/mol. For the same protein, the Tm [6] was 91 °C, the “heat capacity change of unfolding” value [6] was 1.35 kcal/mol/K and the “unfolding enthalpy (van 't Hoff)” value [6] was 88.8 kcal/mol. For the same protein, the Tm [7] was 77.8 °C, the “heat capacity change of unfolding” value [7] was 1.33 kcal/mol/K and the “unfolding enthalpy (calorimetric)” value [7] was 74.7 kcal/mol. The Tm (Bos taurus, pH 3, DSC, phosphate 20 mM, reversible: yes) was 77 °C, the denaturant m value [8] was 0.9 kcal/mol/M and the “denaturant midpoint” value [8] was 4 M. The unfolding free energy [8] was 3.8 kcal/mol, the unfolding free energy (Bos taurus, pH 6.85, 25 °C, Urea, CD, Phosphate 0.01 M, chloride 0.2 M) was 6.99 kcal/mol and the unfolding free energy (Bos taurus, pH 6.85, 25 °C, Urea, CD, Phosphate 0.01 M, citrate 0.2 M) was 9.79 kcal/mol. It also gave an unfolding free energy (Bos taurus, pH 6.85, 25 °C, Urea, CD, Phosphate 0.01 M, phosphate 0.2 M) of 9.18 kcal/mol, an unfolding free energy (Bos taurus, pH 6.85, 25 °C, Urea, CD, Phosphate 0.01 M, sulfate 0.2 M) of 8.8 kcal/mol and an unfolding free energy (Bos taurus, pH 6.85, 25 °C, Urea, CD, Phosphate 0.01 M, tartrate 0.2 M) of 7.58 kcal/mol. For the same protein, the unfolding free energy (Bos taurus, pH 7.1, 30 °C, GdnHCl, CD, phosphate 0.11 M, NaCl 0.04 M) was 11.2 kcal/mol.

B5: Seminal ribonuclease wild type, P00669 (protein)
chain: MALKSLVVLPLLVLVLLLVRVQPSLGKESAAAKFERQHMDSGNSPSSSSNYCNLMMCCRKMTQGKCKPVNTFVHESLADVKAVCSQKKVTCKNGQTNCYQSKSTMRITDCRETGSSKYPNCAYKTTQVEKHIIVACGGKPSVPVHFDASV
For B5, the Tm [9] was 61.6 °C, the “unfolding enthalpy (van 't Hoff)” value [9] was 151 kcal/mol and the Tm [10] was 65.2 °C. For the same protein, the “unfolding enthalpy (van 't Hoff)” value [10] was 199 kcal/mol.
